US20220348650A1

Molecular target: hTIGIT on the surface of T cells of B-hPD-1/hTIGIT double humanized mice (human extracellular region in the mouse genome (C57BL/6)) (UniProt Q495A1)
Test: flow cytometry on spleen cells of a B-hPD-1/hTIGIT mouse, secondary anti-human Fc FITC; Q3 (TCRβ positive, stain negative) 30.3%

hTIGIT on the surface of T cells of B-hPD-1/hTIGIT double humanized mice (human extracellular region in the mouse genome (C57BL/6)), sequence (Q495A1 22-141 limits assumed): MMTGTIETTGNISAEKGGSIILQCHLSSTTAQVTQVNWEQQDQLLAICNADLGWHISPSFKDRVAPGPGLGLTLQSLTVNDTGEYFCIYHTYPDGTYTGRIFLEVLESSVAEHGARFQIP

% of events in quadrant Q2 (mouse TCRβ positive and human IgG positive): 2.61%
Substance: IgG1 isotype control (antibody)
